{
  "source": "patent US20040088744A1",
  "target": "fusion protein consisting of apoB17 and the receptor binding domain of apoB (\"B17(B69-79)\")",
  "assay": "cell-based or functional assay",
  "data": [
    {"substance": "ligand binding domain of the LDL receptor (\"soluble LDL receptor\") (from UniProt P01130 22-354)", "values": [
      {"measurement": "secretion of the fusion protein", "result": 10, "unit": "fold"}
    ]}
  ]
}
